Laboratory results reported in PMC8939769.

Target: SARS-CoV-2 spike protein receptor binding domain (RBD) (SARS-CoV-2) (UniProt P0DTC2)
Test: ELISA

AZD7442 (combination of AZD8895 and AZD1061)
IC50: 0.065 µg/mL
